First the molecules themselves.
T1: VEGF-165 (VEGF-A) (Homo sapiens)
T1 chain: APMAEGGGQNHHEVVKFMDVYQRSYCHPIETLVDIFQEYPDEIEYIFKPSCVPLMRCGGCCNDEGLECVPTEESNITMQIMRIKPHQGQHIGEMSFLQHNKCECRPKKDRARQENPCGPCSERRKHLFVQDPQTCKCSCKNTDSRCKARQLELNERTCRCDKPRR

B1: AMSB107 (ssRNA)
RNA: UGCAUGCAUUUUACCAGUGAGUCGGAUCUCCGCAUAGAUAAGCCAACAAACGUACAUUCUCUGUUAGUAUUUUCUGCG
modifications: 2'-F all
B2: AMSB107.21 (ssRNA)
RNA: B1 RNA
modifications: 2'-F with 2'-OMe in stems as printed
B3: AMSB107.18 (ssRNA)
RNA: B1 RNA
modifications: 2'-F with LNA (L) at positions as printed
B4: AMSB107.12 (ssRNA)
RNA: B1 RNA with U1C, G2U, C3G, A4U, U5A, G6C, C7A, A8G
modifications: 2'-F all
B5: AMSB107.20 (ssRNA)
RNA: B1 RNA
modifications: 2'-F with LNA (L) in stems as printed
B6: AMSB107.14 (ssRNA)
RNA: UGCACUGCAUUUUACCAGUGAGUCGGAUCUCCGCAUAGAUAAGCCAACAAACGUACAUUCUCUGUUAGUAUUUUCUGCG
modifications: 2'-F all
B7: AMSB107.2 (ssRNA)
RNA: UGCCAGUGAGUCGGAUCUCCACAGUAGAUAAGCCAACAAACGUACAUUCUCUGUUAGUAUUUUCCUGUG
modifications: 2'-F all
B8: AMSB107.1 (ssRNA)
RNA: UGCCAGUGAGUCGGAUCUCCGCAUAGAUAAGCCAACAAACGUACAUUCUCUGUUAGUAUUUUCUGCG
modifications: 2'-F all
B9: AMSB107.4 (ssRNA)
RNA: GCAUGCUUUUACCAGUGAGUCGGAUCUCCGCAUAGAUAAGCCAACAAACGUACAUUCUCUGUUAGUAUUUUCUGCG
modifications: 2'-F all
B10: AMSB107.9 (ssRNA)
RNA: B9 RNA with G1U, C2G, A3C, U4A, G5U, C6G, U7C, U8A
modifications: 2'-F all
B11: AMSB107.11 (ssRNA)
RNA: UGCAUGCAUUUUCCAGUGAGUCGGAUCUCCGCAUAGAUAAGCCAACAAACGUACAUUCUCUGUUAGUAUUUUCUGCG
modifications: 2'-F all
B12: AMSB107.5 (ssRNA)
RNA: AUGCAUGCAUUUUUACCAGUGAGUCGGAUCUCCGCAUAGAUAAGCCAACAAACGUACAUUCUCUGUUAGUAUUUUCUGCG
modifications: 2'-F all
B13: AMSB107.13 (ssRNA)
RNA: B12 RNA with A1C, U2C, C4G, A5U, U6A, G7C, A9G, U10G
modifications: 2'-F all
B14: AMSB107.15 (ssRNA)
RNA: B12 RNA with A1U, U2G, G3C, C4A, A5U, U6C, G7U, C8G, A9C, U10A
modifications: 2'-F all
B15: AMSB107.10 (ssRNA)
RNA: B12 RNA with A1U, U2G, G3C, C4A, A5U, U6G, G7C, C8A, A9U
modifications: 2'-F all
B16: AMSB107.17 (ssRNA)
RNA: B12 RNA with A1G, U2C, G3U, C4G, A5U, U6A, G7C, C8A, A9G, U10C
modifications: 2'-F all
B17: AMSB107.6 (ssRNA)
RNA: UGCAUGCAACCAGUGAGUCGGAUCUCCGCAUAGAUAAGCCAACAAACGUACAUUCUCUGUUAGUAUUUUCUGCG
modifications: 2'-F all
B18: AMSB107.8 (ssRNA)
RNA: UUUUGCAUGCAUUUUACCAGUGAGUCGGAUCUCCGCAUAGAUAAGCCAACAAACGUACAUUCUCUGUUAGUAUUUUCUGCG
modifications: 2'-F all
B19: AMS0433.5 (ssRNA)
RNA: CACCAUGCUUGCGUAGCAUCAUCCAGUGAGUCGGAUCUCCGCAUAUCUGCG
modifications: 2'-F all
B20: AMS0433.m6 (ssRNA)
RNA: UGCAUGCAUUUUACCAGUGAGUCGGAUCUCCGCAUAUCUGCG
modifications: mixed 2'-F and 2'-OMe: mUmGmCmAmUmGmCmAmUmUmUmUmAmCfCfAfGfUfGfAfGfUmCfGfGfAmUfCfUfCfCfGfCfAfUfAfUfCfUfGfCfG
B21: AMS0433.m4 (ssRNA)
RNA: B20 RNA
modifications: mixed 2'-F and 2'-OMe: fUfGfCfAfUfGfCfAmUmUmUmUmAmCfCfAfGfUfGfAfGfUmCfGfGfAmUfCfUfCmCmGmCmAmUmAmUmCmUmGmCmG
B22: AMSB107.P40K (ssRNA)
RNA: B1 RNA
modifications: 2'-F all nucleotides; 5' 40 kDa PEG (SEQ 203 as printed in the description)

Substitutions are numbered along the chain they refer to.

The target in one series is T2, VEGF-121 (VEGF-A) (Homo sapiens, UniProt P15692 SEQ:1-121). As to the kind of experiment: flow; bead-bound aptamer; PBSMCT 2.5 mM MgCl2 1 mM CaCl2, 37 C. The conditions noted are these: tags: recombinant; chain copies: 2; label: biotin.
ACCCUUGCUUGCGUAGCAUUUUACCAGUGAGUCGGAUCUC (ssRNA, 2'-F all nucleotides) [AMS0433.0]: the dissociation constant Kd was 15.2 nM.

The target in a further series is T1, VEGF-165 (VEGF-A). As to the kind of experiment: competition; VEGF/VEGFR2 inhibition. The conditions noted are these: tags: R&D Systems 293-VE-050; chain copies: 2.
Consider B1, for which the IC50 worked out at 0.073 nM.
B2 displayed an IC50 of 0.063 nM.
In turn, B3 came in with an IC50 of 0.422 nM.
In turn, B4 gave an IC50 of 1.03 nM.
In turn, B5 had an IC50 of 0.068 nM.
B6 showed a concentration for half-maximal inhibition (IC50) of 3.27 nM.
As to B7, the IC50 stood at 19.4 nM.
For the molecule B8, the IC50 came out at 21.5 nM.
B9 yielded an IC50 of 0.081 nM.
B10 yielded an IC50 of 0.147 nM.
With B11, the IC50 worked out at 0.114 nM.
Still for that read-out and setting: the figure for B12 is 0.081 nM; for B13 it is 1 nM.
Still for that read-out and setting: the value for B14 was 15.6 nM; that for B15 was 0.17 nM.
The molecule B16 had an IC50 of 0.083 nM.
The same measure, in the same setting: the value for B17 was 0.551 nM.
Take B18: the IC50 stood at 0.255 nM.

The target in the next series is T1, VEGF-165 (VEGF-A). Briefly: competition; VEGFR2 blocking ELISA, PBSMCT, 37 C. The conditions noted are these: tags: R&D Systems 293-VE-050; chain copies: 2.
Molecule CGUAGCAUUUUGCCAGUGAGUCGGAUCUCCGCAUAUCUGCG (ssRNA, 2'-F all) [AMS0433.8] returned an IC50 of 42.9 nM.
The same measure, in the same setting: the figure for B19 is 2.5 nM; for CACAGAGAACUGUGUGCCAGUGAGUCGGAUCUCCGCAUAUCUGCG (ssRNA, 2'-F all) [AMS0433.7] it is 8.23 nM.
Molecule CCCCAUCUGCGAAGCAGUCAGCCAGUGAGUCGGAUCUCCGCAUAUCUGCG (ssRNA, 2'-F all) [AMS0433.6] registered an IC50 of 3.49 nM.

Another series addresses T1, VEGF-165 (VEGF-A). Briefly: competition; VEGFR2 competition ELISA, 50 pM VEGF-165, 37 C. The conditions noted are these: tags: recombinant; chain copies: 2.
For B20, the IC50 came out at 0.041 nM.
As to B21, the IC50 amounted to 0.04 nM.

The series is the same for the next values; noted with them: tags: recombinant; chain copies: 2; label: biotin.
For the molecule UGCAUGCAUUUUACCAGUGAGUCGGAUCUCCGCAUAUCUGCG (ssRNA, 2'-F all nucleotides) [AMS0433], the IC50 was determined as 0.037 nM.

In a further series the target is T1, VEGF-165 (VEGF-A). As to the kind of experiment: competition; VEGF receptor competition. The conditions noted are these: tags: recombinant; chain copies: 2.
With B22, the IC50 stood at 0.036 nM.

For another series, the target named is T3, Angiopoietin-2 (Ang2) (Homo sapiens, UniProt O15123 O15123:19-496). Briefly: competition; Ang2/Tie2 competition (column printed Tier2). The conditions noted are these: tags: His tag; R&D Systems 623-AN.
T3 sequence (O15123 19-496, one chain of several): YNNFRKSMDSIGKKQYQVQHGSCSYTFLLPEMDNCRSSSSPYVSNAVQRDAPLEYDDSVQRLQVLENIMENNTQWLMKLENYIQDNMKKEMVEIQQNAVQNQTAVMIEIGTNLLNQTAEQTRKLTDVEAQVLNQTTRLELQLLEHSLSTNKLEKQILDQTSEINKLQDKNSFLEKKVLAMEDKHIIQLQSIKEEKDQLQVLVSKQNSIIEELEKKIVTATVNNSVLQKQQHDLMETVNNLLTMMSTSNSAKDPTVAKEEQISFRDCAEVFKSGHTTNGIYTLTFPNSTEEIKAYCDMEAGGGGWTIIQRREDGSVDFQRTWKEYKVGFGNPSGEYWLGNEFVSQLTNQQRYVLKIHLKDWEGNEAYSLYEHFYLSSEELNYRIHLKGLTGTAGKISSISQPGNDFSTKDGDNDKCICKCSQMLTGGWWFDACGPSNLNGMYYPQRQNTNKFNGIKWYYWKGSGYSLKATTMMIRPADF
In the case of B22, the IC50 amounted to 0.045 nM.

The next series has as its target T3, Angiopoietin-2 (Ang2). Briefly: competition; Ang2/Tie2 inhibition. The conditions noted are these: tags: His tag; R&D Systems 623-AN.
The molecule B1 had a 50% inhibitory concentration (IC50) of about 0.1 nM.

For the next series, the target named is T1, VEGF-165 (VEGF-A). As to the kind of experiment: flow; PBSMCT, 37 C. The conditions noted are these: tags: recombinant; chain copies: 2; label: biotin.
Consider ACCCUUGCUUGCGUAGCAUUUUACCAGUGAGUCGGAUCUC (ssRNA, 2'-F all nucleotides) [AMS0433.0], for which the Kd worked out at 11.1 nM.
As for UGCAUGCAUUUUACCAGUGAGUCGGAUCUCCGCAUAUCUGCG (ssRNA, 2'-F all nucleotides) [AMS0433], the Kd came to 0.041 nM.

The next series has as its target T2, VEGF-121 (VEGF-A). As to the kind of experiment: flow; PBSMCT, 37 C. The conditions noted are these: tags: recombinant; chain copies: 2; label: biotin.
In the case of UGCAUGCAUUUUACCAGUGAGUCGGAUCUCCGCAUAUCUGCG (ssRNA, 2'-F all nucleotides) [AMS0433], the Kd came out at 0.052 nM.

The values are drawn from patent publication US20230095004 (Aptitude Medical Systems, Inc., published 2023).
